Data from US20210155689A1 (SHANGHAI PHARMAEXPLORER, published 2021).

Legend:
[1] = target: T1, human LAG-3 ECD (antigen protein of the affinity test) (human, UniProt P18627 23-450); test: SPR, antibody captured by anti-human Fc IgG on CM5; ratio of KD values
T1 sequence: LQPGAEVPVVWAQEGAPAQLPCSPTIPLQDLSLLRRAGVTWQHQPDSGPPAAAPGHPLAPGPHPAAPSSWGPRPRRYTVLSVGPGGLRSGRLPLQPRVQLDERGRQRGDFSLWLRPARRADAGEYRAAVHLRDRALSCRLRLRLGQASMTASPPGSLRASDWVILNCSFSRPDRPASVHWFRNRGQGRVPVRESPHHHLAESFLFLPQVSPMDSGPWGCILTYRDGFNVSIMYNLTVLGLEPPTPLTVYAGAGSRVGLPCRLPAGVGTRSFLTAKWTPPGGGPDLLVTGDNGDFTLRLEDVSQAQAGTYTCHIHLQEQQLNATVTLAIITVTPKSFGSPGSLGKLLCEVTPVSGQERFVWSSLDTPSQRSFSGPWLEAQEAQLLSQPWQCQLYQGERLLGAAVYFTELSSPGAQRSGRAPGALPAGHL
Description: First, anti-human Fc IgG was immobilized on the surface of the CM5 chip to 6000-10000 RU by amino coupling method, with FC1 as the reference channel. The coupling process was as follows: a freshly prepared 1:1 mixture of 50 mM NHS and 200 mM EDC was activated for 7 minutes, then injected with 10-50 ug/ml anti-human Fc IgG diluted in 10 mM sodium acetate ph5.0 buffer. The remaining activated sites were blocked with 1M ethanolamine. Then, HBS-EP+ buffer was used to dilute the antibody to be tested to 5 ug/ml (adjustable according to the capture level) and the antibodies were captured on the chip at a flow rate of 10 ul/min to obtain a response value of about 100˜300 RU. Then the antigen protein was diluted to 100 nM (the highest concentration was tentatively 100 nM), and flew through the chip surface at a flow rate of 30 ul/min. If enough signal value was obtained, the antigen-protein was diluted by several concentration gradients, and flew through the chip surface respectively. At the end of each cycle, the chip surface was regenerated with 10 mM Glycine at pH 1.5. The kinetic rate constant needed to be subtracted from the blank control, and the data was fitted with the global fit analysis method 1:1 combination model. The dissociation equilibrium rate constant (KD) was calculated according to the following formula: KD=kd/ka.
The method was the same as that in Example 5.

[2] = target: monkey LAG-3 (full length, on the cell surface) (monkey); test: FACS, HEK293-cLAG-3; 0.000 nM
Chain of monkey LAG-3 (full length, on the cell surface) (monkey) (P18627 other isoform, or with tags, fused parts or gaps limits assumed): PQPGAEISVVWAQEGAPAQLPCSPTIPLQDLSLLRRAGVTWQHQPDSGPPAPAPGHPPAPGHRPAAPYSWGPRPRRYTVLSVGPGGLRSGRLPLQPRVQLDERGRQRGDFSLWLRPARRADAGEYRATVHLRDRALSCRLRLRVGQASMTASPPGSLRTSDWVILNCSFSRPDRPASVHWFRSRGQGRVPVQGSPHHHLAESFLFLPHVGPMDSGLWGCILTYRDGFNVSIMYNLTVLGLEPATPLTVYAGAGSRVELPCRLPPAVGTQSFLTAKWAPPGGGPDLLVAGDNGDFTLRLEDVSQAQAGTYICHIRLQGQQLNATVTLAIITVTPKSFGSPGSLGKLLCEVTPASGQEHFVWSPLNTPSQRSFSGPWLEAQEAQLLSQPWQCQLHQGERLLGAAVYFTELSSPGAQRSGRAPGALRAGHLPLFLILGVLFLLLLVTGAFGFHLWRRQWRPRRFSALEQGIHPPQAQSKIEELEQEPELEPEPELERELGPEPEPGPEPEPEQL

[3] = target: monkey LAG-3 (full length, on the cell surface) (monkey); test: FACS, HEK293-cLAG-3; 40.000 nM
[4] = target: monkey LAG-3 (full length, on the cell surface) (monkey); test: FACS, HEK293-cLAG-3; 0.064 nM
[5] = target: human LAG-3 (full length, on the cell surface) (human) (UniProt P18627); test: FACS, HEK293-hLAG-3; 0.320 nM
[6] = target: human LAG-3 (full length, on the cell surface) (human) (UniProt P18627); test: FACS, HEK293-hLAG-3; 40.000 nM
[7] = target: human LAG-3 (full length, on the cell surface) (human) (UniProt P18627); test: FACS, HEK293-hLAG-3; 8.000 nM
[8] = target: human LAG-3 protein with hFc tag (hLAG-3-hFc protein) (human) (UniProt P18627); test: FACS, blocks LAG-3-hFc binding to MHC II on Raji; 0.823 nM
[9] = target: human LAG-3 (full length, on the cell surface) (human) (UniProt P18627); test: FACS, HEK293-hLAG-3; 200.000 nM
[10] = target: human LAG-3 (full length, on the cell surface) (human) (UniProt P18627); test: FACS, HEK293-hLAG-3; 1.600 nM
[11] = target: human LAG-3 protein with hFc tag (hLAG-3-hFc protein) (human) (UniProt P18627); test: FACS, blocks LAG-3-hFc binding to MHC II on Raji; 7.407 nM
[12] = target: human LAG-3 (full length, on the cell surface) (human) (UniProt P18627); test: FACS, HEK293-hLAG-3; 0.064 nM
[13] = target: human LAG-3 protein with hFc tag (hLAG-3-hFc protein) (human) (UniProt P18627); test: FACS, blocks LAG-3-hFc binding to MHC II on Raji; 22.222 nM
[14] = target: human LAG-3 protein with hFc tag (hLAG-3-hFc protein) (human) (UniProt P18627); test: FACS, blocks LAG-3-hFc binding to MHC II on Raji; 66.667 nM
[15] = target: human LAG-3 (full length, on the cell surface) (human) (UniProt P18627); test: FACS, HEK293-hLAG-3; 0.013 nM
[16] = target: human LAG-3 (full length, on the cell surface) (human) (UniProt P18627); test: cell-based or functional assay
[17] = target: human LAG-3 protein with hFc tag (hLAG-3-hFc protein) (human) (UniProt P18627); test: FACS, blocks LAG-3-hFc binding to MHC II on Raji; 0.000 nM
[18] = target: human LAG-3 protein with hFc tag (hLAG-3-hFc protein) (human) (UniProt P18627); test: FACS, blocks LAG-3-hFc binding to MHC II on Raji; 2.469 nM
[19] = target: monkey LAG-3 (full length, on the cell surface) (monkey); test: FACS, HEK293-cLAG-3; 0.320 nM
[20] = target: monkey LAG-3 (full length, on the cell surface) (monkey); test: FACS, HEK293-cLAG-3; 1.600 nM
[21] = target: human LAG-3 protein with hFc tag (hLAG-3-hFc protein) (human) (UniProt P18627); test: FACS, blocks LAG-3-hFc binding to MHC II on Raji; 200.000 nM
[22] = target: human LAG-3 protein with hFc tag (hLAG-3-hFc protein) (human) (UniProt P18627); test: FACS, blocks LAG-3-hFc binding to MHC II on Raji; 0.274 nM
[23] = target: monkey LAG-3 (full length, on the cell surface) (monkey); test: FACS, HEK293-cLAG-3; 200.000 nM
[24] = target: monkey LAG-3 (full length, on the cell surface) (monkey); test: FACS, HEK293-cLAG-3; 0.013 nM
[25] = target: monkey LAG-3 (full length, on the cell surface) (monkey); test: FACS, HEK293-cLAG-3; 8.000 nM
[26] = target: human LAG-3 (full length, on the cell surface) (human) (UniProt P18627); test: FACS, HEK293-hLAG-3; 0.000 nM

B1: 405B8H3-1 (D→E) (humanized antibody with hot spot mutation) (antibody, human IgG4, V domains shown)
VH: QVQLVQSGAEVKKPGASVKVSCKASGYTFTDYEMHWVRQAPGQGLEWMGATDPETGNSAYNQKFKGRVTMTRDTSTSTVYMELSSLRSEDTAVYYCISTGWNDWGQGTTVTVSS
VL: DIQMTQSPSSLSASVGDRVTITCKASQDINSYLSWFQQKPGKAPKSLIYRADRLLEGVPSRFSGSGSGTDFTLTISSLQPEDFATYYCLQYDEFPYTFGQGTKLEIK
notes: made as the humanized antibodies (human IgG4 constant region); also called 405B81-13-1 (D→E); hot-spot mutated antibody
fold increase of affinity against the chimeric antibody 405B8H3 [1]: 1.5 times

B2: 556F6B8-3 (D→E) (humanized antibody with hot spot mutation) (antibody, human IgG4, V domains shown)
VH: QVQLQESGPGLVKPSETLSLTCTVSGFSLIKYGVHWIRQPPGKGLEWIGVIWRGGITDYNAAFMSRVTISKDTSKSQVSLKLSSVTAADTAVYYCARWEGPLAMDYWGQGTTVTVSS
VL: DIQLTQSPSFLSASVGDRVTITCKASQDVGTTVAWYQQKPGKAPKLLIYWASTRHTGVPSRFSGSGSGTEFTLTISSLQPEDFATYYCQQYSSYPYTFGQGTKLEIK
notes: made as the humanized antibodies (human IgG4 constant region); also called humanized antibody 556F6B8-3 with hot spot mutation
fold reduction of affinity against the corresponding chimeric antibody [1]: 12.5 fold

B3: 553G8G8 (mouse antibody purified from hybridoma) (antibody, V domains shown)
VH: RVQLKQSGPGLVQPSQSLSITCTVSGFSLIKYGVHWVRQSPGEGLEWLGVIWRGGITDYNAAFMSRLSITKDNSKSQVFFKMNSLQADDTAIYYCAKWDGPLAMDYWGQGTSVTVSS
VL: DVQMIQSPSSLSASLGDMVTMTCQASQGTNINLNWFQQKPGKAPKLLIYGASNLEDGVPSRFSGSRYGTDFTLTISSLEDEDMATYFGLQHSYLPLTFGAGTKLELK
Mean fluorescence intensity [2]: 3.2 MFI
Mean fluorescence intensity [3]: 112 MFI
Mean fluorescence intensity [4]: 4.2 MFI
Mean fluorescence intensity [5]: 17.1 MFI
Mean fluorescence intensity [6]: 79.4 MFI
Mean fluorescence intensity [7]: 68.4 MFI
Inhibition rate (%) [8]: 15.2%
Mean fluorescence intensity [9]: 81 MFI
Mean fluorescence intensity [10]: 44.4 MFI
Inhibition rate (%) [11]: 93.8%
Mean fluorescence intensity [12]: 7 MFI
Inhibition rate (%) [13]: 95.8%
Inhibition rate (%) [14]: 96%
Mean fluorescence intensity [15]: 3.9 MFI
mIL-2 (pg/mL), antigen-specific T lymphocyte stimulation test; antibody 0.016 ug/mL [16]: 98.2 pg/mL
mIL-2 (pg/mL), antigen-specific T lymphocyte stimulation test; antibody 0.08 ug/mL [16]: 134 pg/mL
mIL-2 (pg/mL), antigen-specific T lymphocyte stimulation test; antibody 2 ug/mL [16]: 251 pg/mL
mIL-2 (pg/mL), antigen-specific T lymphocyte stimulation test; antibody 10 ug/mL [16]: 352 pg/mL
Inhibition rate (%) [17]: -12.4%
Inhibition rate (%) [18]: 45%
Mean fluorescence intensity [19]: 8.8 MFI
Mean fluorescence intensity [20]: 28.1 MFI
Inhibition rate (%) [21]: 95.9%
Inhibition rate (%) [22]: 8.1%
Mean fluorescence intensity [23]: 128 MFI
Mean fluorescence intensity [24]: 3.5 MFI
Mean fluorescence intensity [25]: 77.7 MFI
Mean fluorescence intensity [26]: 2.7 MFI
